Source: patent US5643731A, “Use of pairs of leucine zipper peptides in immunoassay methods” (Behringwerke Aktiengesellschaft, priority 1990, dated 1997)

Experiments:
[1] = target: T1, Jun-anti-AFP antibody binding to the Fos-coated microtiter plate (FBJ murine osteosarcoma virus, UniProt P01102); assay: Inhibition of the Jun-anti-AFP antibody binding to the Fos-coated microtiter plate by addition of free peptide
T1 construct: host or cells: synthetic peptides; conjugate made in house
Method: 100 μl portions of a Jun peptide-anti-AFP antibody conjugate (anti-AFP antibodies from sheep) prepared as in Example 2, Step 3 or 3a are pipetted into the wells of microtiter plates which were coated with Fos peptide as in Example 2, Step 1, and incubated at 37° C. for 2h. After the wells had been washed three times with washing buffer (OSEW, Behringwerke), 20 μl portions of standard or sample and 100 μl of a buffer (OSND, Behringwerke) with the addition of peroxidase-conjugated anti-AFP antibodies from sheep were introduced. The two-hour incubation at 37° C. is again stopped with a washing step (see above), and the substrate/chromogen reaction is carried out as in Example 2, Step 4.
The Jun/Fos AFP assay described hereinbefore was preceded by an incubation step with 100 μl in each case of a Jun or Fos peptide-containing buffer solution (buffer=OSND) per well at 37° C. for one hour. After 3 washes, the subsequent assay procedure was as specified above.

[2] = target: c-Jun "leucine zipper peptide" (SEQ ID No1) (Homo sapiens, UniProt P05412); conditions: cited from earlier work

Sequence | Measured signal (extinction 450 nm) Standard S0 (0 IU AFP/ml) ([1]; free peptide 5 μg/ml) | Measured signal (extinction 450 nm) Standard S5 (300 IU AFP/ml) ([1]; free peptide 5 μg/ml) | Measured signal (extinction 450 nm) Standard S0 (0 IU AFP/ml) ([1]; free peptide 50 μg/ml) | Measured signal (extinction 450 nm) Standard S5 (300 IU AFP/ml) ([1]; free peptide 50 μg/ml) | Measured signal (extinction 450 nm) Standard S0 (0 IU AFP/ml) ([1]; free peptide 500 μg/ml) | Measured signal (extinction 450 nm) Standard S5 (300 IU AFP/ml) ([1]; free peptide 500 μg/ml) | heterodimeric complexes with the c-Jun "leucine zipper peptide" [2] | inhibition of the binding of Jun-anti-AFP antibody to the Fos-coated solid phase ([1]; addition of free peptide)
LTDTLQAETDQLEDKKSALQTEIANLLKEKEKLEFILAAY [Fos, synthetic peptide comprising positions 162 to 201, the leucine zipper of the v-Fos protein] | 0.010 | 3.416 | 0.011 | 3.572 | 0.015 | 3.694 | forms very stable heterodimeric complexes | 
RIARLEEKVKTLKAQNSELASTANMLREQVAQLKQKVMNY [Jun, synthetic peptide comprising amino-acid positions 285 to 324, the so-called leucine zipper of the c-Jun protein] | 0.015 | 3.486 | 0.011 | 2.857 | 0.013 | 1.371 |  | possible to inhibit the binding
